Assay results published in the domain aggregation screens of Martell et al. (2025).

Assay: soluble fraction after stress (log2 fold change); higher = more stays soluble; pooled small domains, quantitative proteomics
Settings: stress: 75 degC
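Note: 20 min heating vs room temperature control held 20 min.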

| Sequence | soluble fraction (log2) |
| --- | --- |
| HMRGINDLSLVDPQGRIRKDGEQYVVAFGRHKGKEISQIISQDPSYLNWLLSPKGIEDDATRELIRTQYS | -0.206 |
| HMRGPTIELLIQKSALYEELDDSENALKEILKAFDRDSLNSDVLNRLVNLLLNDKQIDRAENYNQLLIEK | -0.17 |
| HMRGPVRLDLPVSGLSRSSGPALAKILQAVPGVHKAHVNVRSGKATLEYDPARAKVTDFVEVIRSAGFGT | -0.272 |
| HMRGQGRILAMLKIQPEIATKDLAYLLGIRQQSLNELLKKLEKNSYVERRPSEKDRRVMVVHLTEKGKE | -0.782 |
| HMRGQLADLWLPREQARRAAEIVAARPVPLGSVKTWIARGKLAPRKTGTGPALYRVGALVSLLAKS | -2.14 |
| HMRGVNEISYTTLISEVSGGNVRDVVISGDEITGTFNDGSRFHSFSPDDPQFIERLNDQGVIINVKPL | 0.168 |
| HMRHDSEGYYRLIGVPPDADDAELKEAAKKRLMEAHPDHGGSEDEFVEVYRAYRTLTDPSARAEYDARP | 0.28 |
| HMRHEDLSPAQKAAALVVAVGSENAAQVLRHLSEEEVEILAGEVARLGEVDPDVVDSVMREVYEQMMGH | -0.642 |
| HMRHKSNRRLTAAHQIEQQIQKLLMENTMEAKELKESLNFAAKDIDTVLSWLVDKDKVRINAINQYYWT | -0.434 |
| HMRHRITEKDKQFRIGQQVWHSEYGKGMVLSVDGIGSSARLTVSFVSGKLAKIIGTFVSTEP | -3.47 |
| HMRIETLESLANRLAYKAYRTGRKVELEPMNPFERRVIHTALQNSKYATTESEGEDMNRHIVIVPKEGG | -0.152 |
| HMRILGIDPGSVVTGYGVIDKSGNYLRHVLHGEIKPHKGYLLSEVLMDIFSKLSAVIVETNPQSV | 0.271 |
| HMRINIVKSKNAEQLYIIHSYRINGKNTSKIYKKLGTMADLLPLHNHDRDQVLAWAKEQARLATEQYDQEN | -2.79 |
| HMRIQLNFSDQLLDDVMSEALKHIDRKSQEHHIEKQMDDEFMLVYIDARLIIQVIVNIINNAIKY | 0.168 |
| HMRITEGEIVEIQEGDNRALVGVGEKLEGIISLDEIRGADGKLLFNVGDKITVMVMGHYNERPK | 0.244 |
| HMRITRREQQVLHLLAMGMTTREIAGHINLTERTVRNRISNLRDKLGAQTASQLLAKAVAQGLIEP | -2.69 |
| HMRIVSGRESMLGRTVVVADWAGERGHVVVDGERWNAVASTPLAAGRRARIVGIDGLTLSVSPDDKP | 0.0293 |
| HMRKAERHLLIKQVIDEFTIRTQEELLAKLSDYGVNATQATISRDIRDLKIVKAPDENGISRFVFF | -1.73 |
| HMRKGDDRLRAQVDEYISKQGNNTFNYKQVAHAINATSPISQRAVALYLAELAFDGDLLETAPGRYKSPSR | -0.0636 |
| HMRKIKDVLRLKLHAGLSHERVAASLNISKGVVAKYTSLAAAAGLDWPTVERLSEAALERRLV | -0.181 |
| HMRKIKEVLRLKFETGFSHERIAAAVGVSKGAVTKYVQRAVAAGLGWPLAPERDDAALEALLFPH | 0.842 |
| HMRKLDQRLAGLLLGKGRLVKATHQQLADELGSVREMVSRLLKGFAEHDLVRMSREQIEIVDAAGLRKLAD | -2 |
| HMRKPDLTSVRTLIRSVSKLARHLKISPNGIYRWISVNRIPGAHVVKVANYYDVEIRDLVHLTGSD | -1.49 |
| HMRLADHVVEKLLALVQDRGLQPGQKLPAERQLAEELGVSRTSVREAIQKLTSQGVLSARRGDGTYLQS | 0.0739 |
| HMRLARPLTPTEERVLRLLASDMSNAKIGEVLGIRLPTVKSHVSHIMQKLGVTSRAKARTAAQQLGI | -1.21 |
| HMRLDPENFYIRAVTYYRNGDWQRALSQLDEAIKLGTAIEYPALQARIYLEQGMRDEFIAASEK | -1.86 |

| Sequence | soluble fraction (log2) |
| --- | --- |
| HMRLDVALRGVLLDGDPTQSRAFVLVSGTTSTYRLGETVQSAELVAINADTITLRTETGLHVIGFDGLI | -2.77 |
| HMRLEYLVDVEEISIKEYLMLLGLSRRLARKIKLYGKMYINHQEAFNYHLVKKGDLLTIEFDE | -2.85 |
| HMRLIDVFELSPKNRTVLQLYYYEGYSVTEISKILKISVNGVTSRLSRARSKLKLEMEAAENE | -0.577 |
| HMRLMLITPTEFDEAAEIADNLKDRRAVLMNVEKTDNETARRLIDFLSGVVYALGGKIMRISAQAYVLT | 0.00546 |
| HMRLPNGYGGVTKLSGRRRKPYMVRKTIGWHIDEKTDKKVQDYVVIGYAATKSEALQMLADYNNNPFDV | -2.93 |
| HMRLSVVDLQDSLRGLEYPAGKGDLINHAREHNASADVIAVLEQFSERTYRSAADVGEEFGRV | 0.152 |
| HMRLTIAQLSEKTGVPERTIRYYIDRGLVPSAHGERRGAWYDTVHLEPLLRIQQWREAGLSLEAIADLLR | -1.72 |
| HMRMLLEERLDEIVKIVNERGSISNQELVKMFGASESTIRRDITTLANDNRVIRVHGGAMSVVS | -0.333 |
| HMRMTLKNKVEDIVHILRKDKQTSLSAILGDNTDRIQTIVVFLAILELVKQHLIKTDQNANFGDINLFPED | -0.000181 |
| HMRNLFWTEAQNAQNELNAMRINALTQSIRRIEPNFRGIPSLRDPNRPIPNEEVRDYENYLNRILP | 0.0375 |
| HMRNMRKLWIARINAAARMNDISYSKLMHGLKLANVEINRKMLSEMAIDDPKSFTALVETAKKALNG | -1.49 |
| HMRNPLYAQVADYVMQQIAAGTYRPHQAIPTEWQLAKKLEVSQGTVRKGLDELVFKQILYRQQGVGTFVAD | -1.31 |
| HMRPAAELGLPHAPKHFIQYLTEDDRPQVLKDVDYEGGMGVSIGRLREDSIFDWKFVGLAHNTL | 0.0714 |
| HMRPADTAAMLKYLSSGAVKGIGGALAGRIIEAFGDESIKVIEEDPARLATVKGITLKKAKEISEEMQRVN | -0.0169 |
| HMRPEFVVALSGADLGKLHRLYELGEVLSREDDAEGVTHAVLRVPDKHEHAFHAEFPQARPM | 0.879 |
| HMRPIDEVFGFFSRPENLTVITPSNLHFNILTPRPLEMKQGAVIDYTIKIFKVPIHWRTLITTYDPPFKFV | 0.059 |
| HMRPILTLEEAKAKALAHAGLKADQVTFTEAKLDWDDGKQVYDIEFYTADFKEYDYEIDAKTGEVLEVDY | -0.466 |
| HMRPKAIFVDVDDTLVRSVGQTRIPMPAVIAHIRRLHDAGHQLYLWSSGGADYARASAEELGIGQYFQAFL | -0.268 |
| HMRPRWTEQEVERAKAIKMIYPNAYRLESSDVFVQVWSKEEILLAHVEVDMFPSLRPGQPVELDEIIG | -1.19 |
| HMRPTAWDQISDWLDRHGSIANADVVRIAGLDTLKASKLLTTWREQGLLEPLPGRGKRNMAYVRAI | -0.887 |
| HMRPTVNETQIREVFRSILGREVDPEGLRHYLGQAAKGWSIDQIRADVNNSQEAHQRRAELARQAEELK | -0.0425 |
| HMRQDEKTLLYWIAGHLKREGRQITERSARHLVEQVGTDMENLSREMEKLIAYTMGRTEITGQDIDDI | -1.77 |
| HMRQEIIEDSRKLLEESLKRYDLTYQEFIDTLKSKNMNVESTLINIIKNQSSLDLVLRNLGLIAP | -0.0293 |
| HMRQISDPTALASMVDKVIEDNPSAVADYRRGESKALGFLIGRVMQSSGGKANPKMIRGLLVKNLES | -0.284 |
| HMRQMIIIMQKQAAASSVAAVVEFIRSKGLREHISPGAERTIIGAVGDERVFLPQELESLPQVERAIRVL | -3.67 |
| HMRQPAAVEYSTFLDWVHASQVERVVFEGDTIRGVRVTGEGFVTYSPETDNTALIGELKKSRVQISATAP | -0.508 |

| Sequence | soluble fraction (log2) |
| --- | --- |
| HMRQQAFWALVPEERDVLDETGAPLFRIGPTAWALVIEDRGEVFVVRDEDGRVGYLHEVDGVTR | -1.57 |
| HMRQQLAEILQKAVDNLPEAQRLVWLLRDKSDMTFKEIAEDLQLTEANVRVLLHRARLKLLAVINQYEE | -1.66 |
| HMRQYKEMPYRLFLIHLGKGLVDEVELSDKAKLTGKLKNGKIFITDNPRTENFKEQLLLHDVKVKEG | -0.329 |
| HMRQYTPEQLETAVLVLEEVRQGRRLDRALRSHPMPDGRLIAKHVLVAAYRKLVAEGTWKEDPEFLSRIRM | -2 |
| HMRRADRLLQLIQILRRHRRPVTGDVMARELEVSLRTVYRDIATLTIEGVPIRGEAGVGYVLGEGY | -2.41 |
| HMRRDEDLAHGRELLEKELRKQGLEVSENLKQDKLLEGAKRLGFLEAEDLVVAVGSGKVSAGMAVGRIIG | -0.114 |
| HMRREKVLIKLAENLASKVLRTKKSIELEPMTPYERKVIHTTIENISGVKSWSEGENLQRHLIVALDE | -1.5 |
| HMRRGPLTPDDFVLDMRVVHPRYGVGRIVALSGSGESRKATVDFGGSIGRMKFVLSQSPLKP | -1.34 |
| HMRRHLLEMNDAIGRLGRLISEDPADRDVAEVIWAALRGMVMGQMIMNEPIDWQRERRTLVEMAIGR | 0.0485 |
| HMRRIADVVPEQLTREEAEELLETLAEQGEIHEEQALLARYILEQSLQGVAPEVEPLIRAKLLAGILMVY | -2.18 |
| HMRRKDIEFTNTMLEELYRHNSKWYDAVVRAYALEIPQKQIAEEMGIRLEAFQSMLFRAKKWIKTKYEADY | -2.83 |
| HMRRNLSGEDTIVNRMAQWQYTQEQKNELHKMMDAGMPQEDILSVFYPEIKAEEMHRFLLAFQTAHNSG | -0.344 |
| HMRRPRGVFNLVPRGFKRFGFITPDGGGEDMFAHLENVRAGHVVEDRNAVEYGIGRGPDGRDQAVDIVPVP | -0.0889 |
| HMRRPTYPTVTTEAGMVVEDRSSGFVGDIVRWSFEGVTLRDRQQQLRHFTWKPGGFLINGTPVTLKRPE | -0.733 |
| HMRRRVIGTLVMGDMSTDFKVLADGHTHRVLAAAISFHKAKPGDEVVILVPKSAPSKWAAVEHVMK | 0.033 |
| HMRSAKLPYSEFLKLVDTDKVNDVSIVGRTISGHLDDGSKFSTYTPPNDPNIIEKLSSHNVIINSAPE | 0.0959 |
| HMRSASFDIMSQKQSDATLGYERVYDTETNEVYKAYNGFTDDYDGERYKSISDNMYTKGISGYIEK | 0.39 |
| HMRSDSEIKEDVLDELMWQPNIDETQIGVIVEKGVVTLTGFVDAYAKKTAALDAVKNVKGVKAVANDIEV | 0.131 |
| HMRSFGRLRRRDSGRWEAAYVGPDARLYRAPATFEAKDDAIAWLSAERRMIELDTWIKPHDRASR | -1.78 |
| HMRSGFAFSEEEIKHLDNIVSPLLIKGQSIHHISIFHKDEVMMSERTLYSYVNNGLFSARNIDMPRTVRMR | 0.476 |
| HMRSISVEMDGKEYLIPTVSENGKVLSDDDAVKQFKKTGKHLDVFDSPEDATAYARQLHEDQESFYA | 0.231 |
| HMRSKTDLVYEEIKKLILRGELSSDTPISENHLARRFEISRTPIREALKRLHIEGFVRIIPNHGVFVR | -2.15 |
| HMRSLAVGNVVSEEGKPSYLLLDSKRTMLFSENSIPSLYLEDGRRVIVNYTLLDEDYQGYDFRIHVNDIDT | -0.00205 |
| HMRSNADALIGRTARVSQTIVENGFGRVALDGDDWKAQAADGSRIEEGQNVIVKDRDSIILTVEKE | 0.243 |
